Source: the domain aggregation screens of Martell et al. (2025)

Assay: soluble fraction after stress (log2 fold change); higher = more stays soluble; pooled small domains, quantitative proteomics
Conditions: stress: 75 degC
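Note: 20 min heating vs room temperature control held 20 min.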

Sequence	soluble fraction (log2)
HMYLSNPTYRGDSLVDALTQIGVDASFASRRDLARKNGIENYTGSAKQNLELLQLLREGRLR	0.402
HMYLYADIYKKLEEKIKNMEVGEKLPSERAMVQEYGVSRNVLREALVLLSERGLIEIRPGKGSYVTNQQ	-1.17
HMYNKKAYVNTNSDFLNVRSEASTESSVVDKLARGTEVNIVGNIQNGFYPIVLNEKNAWVSSDWISFEKPT	0.053
HMYNNDEIEKIQTMYNAIYQLNDIEKALIMLFLEDKSYKEIAEIMGISEGNARIKMMRTKDKLKNLISKN	-0.527
HMYNNGYVNSDRVNFRKGASTNSDIYKVLDKNTSVTILDYEGDWSKVKINDTVGYVYTKYITAG	-0.368
HMYNTDAMGVRIGELRRAKGLTQEAFAKTLGISAQAVSKWETGLGFPDISLLPMIAETLGTKIETLFGAE	-0.299
HMYPATGTVVTAGGHLNMRSEPDRSGAILARIPNGTALTLTGKNGDWYAATYAGRSGYVSAQYISLS	-0.421
HMYPDNSGDIQQLAQNIFRQENVSVDRDGLALISSRLGSDHAATRSEIEKLALLAGPGGTLTFETISEVLG	-0.145
HMYPEDMMSLMRRALRLINHLESNRKDRHNSRQLELTESKIRRLARYYKGRGLIETEWAYKRDQLRLLV	-0.532
HMYPIYDYISNMYLGKHLNAGMSLEEARGIMDEMLEKLLFDVPEEYHIDRDHFYEYLKKYYTERFSA	-1.73
HMYPQLIGFKVIDEDKGEVGVVKEVSESMHQILLTVMKGKKEILIPLAEEFITKVNRHKKELFMVLPDG	-0.192
HMYRLDVEISDEIKRDIDEETLSEIKGIIAEDPRPSYQNDETRIYRFTFAGREISFRVKDRTATVTEIL	-0.921
HMYRPLYQQVYDFLVKQIAAGEWGPGESLPSEQALAGRLNVSQGTVRKALDALAADSLIDRRQGKGTYVAE	-0.236
HMYRPQQEFTMRDLFQNNLNGSESASVRRDALGAELGIGYGNAKRFLERLNHYGVSREEFTAALEKLESE	-0.522
HMYRSGGYTGAGKDDEEAGVVHRNEFVNTADAVRNPHVKRFLDVFNVAQKDGTIRMLNTSQILERARLDA	0.115
HMYRYGETPMVVVPDLIGRTVSDIYEEMNADFRLEKFGNGNTVISQAPKPGERVEQGSVIRVYLSGQDQ	0.0556
HMYSDERLQTFMELLPFFVEELSNKHVTRYNVWQNYREAYPNGYGRSQFFFHLGQNLEAKKK	-1.34
HMYSIKEFSFEVTTPGQRLDLFLSEELIGQTRSSIQNLILKKYVTVNGQVSKASYKVKTGEFISVKIPV	-3.1
HMYSINKTEFGERIKSAREELKMTQTQLAQLLKTSQTTVAKYEHGEQIPRADVLATISKATGKSTDWLLFG	-0.268
HMYSKQRELIMEAVFKNRVHPTAEYVYKLLKKDHPELSLGTVYRNLNYWAENNMLKKINVPGGSDRFDGT	0.0438
HMYSLGPKERSIVSFIANRPGSRSGQIAKSLQIPLPTIKRILNGLVENKVIARHGIGAGTNYVVEDQA	-0.711
HMYSMSAPMPGVILEIKVAPGDQVNKGDVVMVLEAMKMKNDLHAARTGTVESIDINSGEQVKYGQVLLRFV	-0.225
HMYSQIGYGSSGSDVRKLQEILNGKGYNLSVDGQFGAKTKSAVRDYQSKNGLSVDGIVGVNTWGKLT	-0.0992
HMYSYNKEEVGKRIKSIRQQKGLTQESFGELFGASKGNVATWEKGISLPNASRLREIADLVSITVEELLYG	-0.735
HMYTLGEESDGTVRLLELYDIIKNKNEKIFVVDELDRSLHPNLTFNFVKKYLSIENKSQLIVSTH	0.0677
HMYVKKSSFVKKSLNNYEFKITDNTNDLLIFYKGMLPDLFREEQGIVVEGLIDKNNNIVASKV	0.0603
HMYVSGVPAITSIERVSTPGRRVYAGYTTVPKVIGGMGVSILTTSRGVMTDAEARRQKVGGELLAKV	0.234
HMYVTGSAIRRLREKRKLTQAQLAAALSVSDKTVSKWETARGLPDITLLEPLARALQVSVPELLSGEEV	-1.58
HMYVVLYPGMARDEAVQVMNELQSRGIDYYEKNGNIYVPKTDENSLRMELANLGYPKTTNNYD	-0.0096
HMYYHQIIGLDVVDENGNTLGKIKEILSPGANDVWVVKRKQKNDLLLPVIDDVIKDVDLAAGKVHVELLEG	-0.269
